How the values were obtained:
[1] = target: T1, 6Hishub alone (clathrin hub, bovine clathrin heavy chain aa1074-1675, no bound LCb) (bovine, UniProt P49951 1074-1675); experiment: pull-down; GST or GST-HIP1h on glutathione Sepharose 4B beads; 6HisLCb and hub premixed 3:1 at 4 C for at least 30 min; 0.4 nmol hub alone or 1.9 nmol hub/6HisLCb complex; binding buffer 50 mM Tris, 200 mM KCl, 1 mM EDTA, 1% Triton X-100, 50 mM imidazole, 0.5 mg/ml ovalbumin, pH 8.0; 4 C, 1 hour; Western blot (anti-His, CON.1, anti-GST); settings: both partners purified
T1 sequence (looked up): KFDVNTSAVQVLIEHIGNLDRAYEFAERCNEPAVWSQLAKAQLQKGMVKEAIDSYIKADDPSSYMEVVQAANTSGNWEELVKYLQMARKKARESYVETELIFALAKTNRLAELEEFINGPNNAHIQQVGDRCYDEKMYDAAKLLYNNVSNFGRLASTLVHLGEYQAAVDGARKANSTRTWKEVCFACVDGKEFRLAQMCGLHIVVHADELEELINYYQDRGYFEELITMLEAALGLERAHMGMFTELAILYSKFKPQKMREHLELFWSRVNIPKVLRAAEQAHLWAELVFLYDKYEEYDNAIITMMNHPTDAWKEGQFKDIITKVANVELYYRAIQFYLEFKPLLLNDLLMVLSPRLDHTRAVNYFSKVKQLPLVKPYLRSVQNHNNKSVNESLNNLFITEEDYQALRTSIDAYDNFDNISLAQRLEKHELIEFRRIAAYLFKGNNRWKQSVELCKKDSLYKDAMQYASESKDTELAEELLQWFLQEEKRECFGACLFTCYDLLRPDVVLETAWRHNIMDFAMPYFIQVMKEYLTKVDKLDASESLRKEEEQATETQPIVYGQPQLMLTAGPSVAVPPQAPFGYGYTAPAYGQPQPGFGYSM

[2] = target: T2, 6Hishub/6HisLCb (clathrin hub with bound clathrin light chain b) (bovine, UniProt P49951 1074-1675; P04975 1-228); experiment: as above; settings: both partners purified
T2 sequence (looked up) 1: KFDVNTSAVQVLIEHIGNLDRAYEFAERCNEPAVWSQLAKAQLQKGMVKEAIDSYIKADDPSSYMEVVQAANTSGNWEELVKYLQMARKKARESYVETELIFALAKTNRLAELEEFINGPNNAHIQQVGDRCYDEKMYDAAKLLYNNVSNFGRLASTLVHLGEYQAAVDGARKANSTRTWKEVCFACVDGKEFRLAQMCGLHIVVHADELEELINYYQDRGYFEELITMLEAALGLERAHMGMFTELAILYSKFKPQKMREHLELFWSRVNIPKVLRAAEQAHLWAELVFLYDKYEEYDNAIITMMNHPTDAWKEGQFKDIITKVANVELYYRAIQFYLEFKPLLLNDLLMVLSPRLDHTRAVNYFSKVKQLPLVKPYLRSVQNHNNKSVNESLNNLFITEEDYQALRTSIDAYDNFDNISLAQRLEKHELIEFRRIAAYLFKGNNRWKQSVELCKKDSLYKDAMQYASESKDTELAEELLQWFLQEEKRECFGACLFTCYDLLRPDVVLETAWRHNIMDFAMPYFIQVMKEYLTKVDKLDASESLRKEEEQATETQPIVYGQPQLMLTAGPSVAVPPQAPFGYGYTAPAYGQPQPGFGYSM
T2 sequence (looked up) 2: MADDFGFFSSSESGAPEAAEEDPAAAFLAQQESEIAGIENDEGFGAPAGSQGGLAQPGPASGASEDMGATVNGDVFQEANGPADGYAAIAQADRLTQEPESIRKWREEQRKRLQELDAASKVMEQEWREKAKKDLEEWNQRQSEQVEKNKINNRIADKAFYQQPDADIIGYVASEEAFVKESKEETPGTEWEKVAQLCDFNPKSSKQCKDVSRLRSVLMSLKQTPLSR

B1: 6HisLCb (N-terminally histidine-tagged bovine clathrin light chain b with the neuronal insert) (natural protein, UniProt P04975 1-228, looked up)
chain: MADDFGFFSSSESGAPEAAEEDPAAAFLAQQESEIAGIENDEGFGAPAGSQGGLAQPGPASGASEDMGATVNGDVFQEANGPADGYAAIAQADRLTQEPESIRKWREEQRKRLQELDAASKVMEQEWREKAKKDLEEWNQRQSEQVEKNKINNRIADKAFYQQPDADIIGYVASEEAFVKESKEETPGTEWEKVAQLCDFNPKSSKQCKDVSRLRSVLMSLKQTPLSR
B1: binds [1].

B2: GST-HIP1h (Huntingtin-interacting protein 1, aa370-644), wild type (domain or fragment, human, UniProt O00291-1 370-644, looked up)
chain: KDEKDHLIERLYREISGLKAQLENMKTESQRVVLQLKGHVSELEADLAEQQHLRQQAADDCEFLRAELDELRRQREDTEKAQRSLSEIERKAQANEQRYSKLKEKYSELVQNHADLLRKNAEVTKQVSMARQAQVDLEREKKELEDSLERISDQGQRKTQEQLEVLESLKQELATSQRELQVLQGSLETSAQSEANWAAEFAELEKERDSLVSGAAHREEELSALRKELQDTQLKLASTEESMCQLAKDQRKMLLVGSRKAAEQVIQDALNQLEE
B2: binds [2].

B3: GST-HIP1h (aa370-644) R508E (domain or fragment, human, UniProt O00291-1 370-644, looked up)
chain: KDEKDHLIERLYREISGLKAQLENMKTESQRVVLQLKGHVSELEADLAEQQHLRQQAADDCEFLRAELDELRRQREDTEKAQRSLSEIERKAQANEQRYSKLKEKYSELVQNHADLLRKNAEVTKQVSMARQAQVDLEEEKKELEDSLERISDQGQRKTQEQLEVLESLKQELATSQRELQVLQGSLETSAQSEANWAAEFAELEKERDSLVSGAAHREEELSALRKELQDTQLKLASTEESMCQLAKDQRKMLLVGSRKAAEQVIQDALNQLEE
B3: binds [2].

B4: GST-HIP1h (aa370-644) R500E (domain or fragment, human, UniProt O00291-1 370-644, looked up)
chain: KDEKDHLIERLYREISGLKAQLENMKTESQRVVLQLKGHVSELEADLAEQQHLRQQAADDCEFLRAELDELRRQREDTEKAQRSLSEIERKAQANEQRYSKLKEKYSELVQNHADLLRKNAEVTKQVSMAEQAQVDLEREKKELEDSLERISDQGQRKTQEQLEVLESLKQELATSQRELQVLQGSLETSAQSEANWAAEFAELEKERDSLVSGAAHREEELSALRKELQDTQLKLASTEESMCQLAKDQRKMLLVGSRKAAEQVIQDALNQLEE
B4: binds [2].

B5: GST-HIP1h (aa370-644) K511E (domain or fragment, human, UniProt O00291-1 370-644, looked up)
chain: KDEKDHLIERLYREISGLKAQLENMKTESQRVVLQLKGHVSELEADLAEQQHLRQQAADDCEFLRAELDELRRQREDTEKAQRSLSEIERKAQANEQRYSKLKEKYSELVQNHADLLRKNAEVTKQVSMARQAQVDLEREKEELEDSLERISDQGQRKTQEQLEVLESLKQELATSQRELQVLQGSLETSAQSEANWAAEFAELEKERDSLVSGAAHREEELSALRKELQDTQLKLASTEESMCQLAKDQRKMLLVGSRKAAEQVIQDALNQLEE
B5: binds [2].

Source: article PMC3005887 (Research letters in biochemistry, 2009)
